In data set [1] the target is T1, Saccharomyces cerevisiae Kex2 protease, soluble secreted form ss-Kex2-C613 (parent Kex2 SEQ ID NO: 4) (Saccharomyces cerevisiae, UniProt P13134).
T1 construct: pro-region cut at Lys108-Arg109; from yeast
T1 sequence (P13134 1-613): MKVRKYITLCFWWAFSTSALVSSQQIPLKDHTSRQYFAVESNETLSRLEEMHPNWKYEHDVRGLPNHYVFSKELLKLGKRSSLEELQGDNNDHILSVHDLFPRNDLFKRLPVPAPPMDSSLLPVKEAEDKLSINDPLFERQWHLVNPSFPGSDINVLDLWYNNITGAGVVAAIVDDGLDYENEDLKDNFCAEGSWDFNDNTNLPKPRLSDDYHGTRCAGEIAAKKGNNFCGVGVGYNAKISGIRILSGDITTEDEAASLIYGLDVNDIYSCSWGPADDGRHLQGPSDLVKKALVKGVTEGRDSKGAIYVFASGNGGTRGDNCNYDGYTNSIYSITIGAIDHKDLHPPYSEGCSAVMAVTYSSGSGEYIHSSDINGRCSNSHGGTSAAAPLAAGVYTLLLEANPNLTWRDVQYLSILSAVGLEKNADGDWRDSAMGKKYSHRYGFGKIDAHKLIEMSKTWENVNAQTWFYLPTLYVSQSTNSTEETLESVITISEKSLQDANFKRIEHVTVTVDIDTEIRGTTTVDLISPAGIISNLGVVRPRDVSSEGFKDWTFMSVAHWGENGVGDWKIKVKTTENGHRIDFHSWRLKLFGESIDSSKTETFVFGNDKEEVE
The experiment in a line: Kinetic constants of ss-Kex2-C613 (single initial substrate concentration, progress curve, Michaelis-Menten fit). In kind it is biochemical. As to the method: (§1) The enzyme activity was determined by a calorimetric test which exploits the capacity of the enzyme to hydrolyse the substrate Z-L-tyrosine-L-lysine-L-arginine-p-nitroanilide (Z-Y-K-R-pNA). The incubation mixture comprises 0.1 mM Z-Y-K-R-pNA in 0.2 M Hepes, pH 7.0 and 1 mM CaCl2, in a total volume of 1.5 ml at 37° C. The reaction is monitored at 405 nm, a wavelength at which the maximum decrease in the molar extinction coefficient (As), equal to 10.9 mM^−1 cm^−1, occurs. An enzyme unit is defined as being the quantity of enzyme that catalyses the transformation of 1 μmole of substrate per minute under the conditions described above. […]
(§2) The kinetic constants were determined by a simplified procedure which requires that measurements be carried out at a single initial concentration of substrate and until the substrate is exhausted. The method provides that, at various times, the average values of residual concentration and rate be determined and is applicable in those cases in which the enzyme catalyses an entirely irreversible reaction under the operating conditions, and is not subject to inhibition by product (Segel, I. H. (1975) Enzyme Kinetics, Wiley, New York). […]

The target of data set [2] is T2, Kluyveromyces lactis Kex1 protease, soluble secreted variant ss-Kex1-C600 (truncated at amino acid 600; parent Kex1 SEQ ID NO: 3) (Kluyveromyces lactis, UniProt P09231).
T2 sequence (P09231 103-600): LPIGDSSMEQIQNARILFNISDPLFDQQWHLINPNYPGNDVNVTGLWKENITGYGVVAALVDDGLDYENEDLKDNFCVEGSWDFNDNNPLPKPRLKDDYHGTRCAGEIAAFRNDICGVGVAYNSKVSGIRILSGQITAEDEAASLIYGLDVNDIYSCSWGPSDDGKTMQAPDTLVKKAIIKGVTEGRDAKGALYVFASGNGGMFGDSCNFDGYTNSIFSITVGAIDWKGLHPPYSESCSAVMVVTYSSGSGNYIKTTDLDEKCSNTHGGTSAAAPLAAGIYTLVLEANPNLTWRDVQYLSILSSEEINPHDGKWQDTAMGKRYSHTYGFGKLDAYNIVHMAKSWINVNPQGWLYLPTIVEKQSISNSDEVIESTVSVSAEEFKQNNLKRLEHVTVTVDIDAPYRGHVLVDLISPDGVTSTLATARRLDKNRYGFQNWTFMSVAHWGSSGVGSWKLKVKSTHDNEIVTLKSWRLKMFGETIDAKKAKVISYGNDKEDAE
The experiment in a line: Kinetic constants of ss-Kex1-C600 (single initial substrate concentration, progress curve, Michaelis-Menten fit). It counts as biochemical. Here is the method: as §1, §2

Substrate in data set [3]: N=C(N)NCCC[C@H](NC(=O)[C@H](CCCCN)NC(=O)[C@H](Cc1ccc(O)cc1)NC(=O)OCc1ccccc1)C(=O)Nc1ccc([N+](=O)[O-])cc1
The experiment in a line: Kinetic constants of ss-Kex2-C613 (single initial substrate concentration, progress curve, Michaelis-Menten fit). It counts as biochemical, Saccharomyces cerevisiae. Conditions: other: ss-Kex2-C613; pH 7.0. Here is the method:
as §1, §2

Substrate in data set [4]: N=C(N)NCCC[C@H](NC(=O)[C@H](CCCCN)NC(=O)[C@H](Cc1ccc(O)cc1)NC(=O)OCc1ccccc1)C(=O)Nc1ccc([N+](=O)[O-])cc1
The experiment in a line: Kinetic constants of ss-Kex1-C600 (single initial substrate concentration, progress curve, Michaelis-Menten fit). Conditions: other: ss-Kex1-C600; pH 7.0. It counts as biochemical, Kluyveromyces lactis. As to the method: The enzyme activity was determined by a calorimetric test which exploits the capacity of the enzyme to hydrolyse the substrate Z-L-tyrosine-L-lysine-L-arginine-p-nitroanilide (Z-Y-K-R-pNA). The incubation mixture comprises 0.1 mM Z-Y-K-R-pNA in 0.2 M Hepes, pH 7.0 and 1 mM CaCl2, in a total volume of 1.5 ml at 37° C. The reaction is monitored at 405 nm, a wavelength at which the maximum decrease in the molar extinction coefficient (As), equal to 10.9 mM^−1 cm^−1, occurs. An enzyme unit is defined as being the quantity of enzyme that catalyses the transformation of 1 μmole of substrate per minute under the conditions described above. Unless expressly indicated otherwise, the data presented in Table 2 refer to the activity secreted in the growth medium by derivatives of the W303 strain which was grown in a flask at 30° C., with agitation (220 rpm), in 1040 medium-2% galactose (except for strains NP255 and NP265 in which the carbon source added to the growth medium was 2% glucose). Various samples were taken along the growth curve for each strain. […] The invention is therefore not limited by the type of promoter used, as long as the levels of secretion of the endoprotease of the invention are satisfactory.
The kinetic constants were determined by a simplified procedure which requires that measurements be carried out at a single initial concentration of substrate and until the substrate is exhausted. The method provides that, at various times, the average values of residual concentration and rate be determined and is applicable in those cases in which the enzyme catalyses an entirely irreversible reaction under the operating conditions, and is not subject to inhibition by product (Segel, I. H. (1975) Enzyme Kinetics, Wiley, New York). The results so obtained were processed using the Grafit programme, which permitted the interpolation of the Michaelis-Menten profile and the determination of the values of Km and Vmax, presented in Table 3. kcat and the kcat/Km ratio were then obtained from those values and from the enzyme concentration.

Here are results for three molecules from US7410775B2, “Method for making recombinant peptides or proteins using soluble endoproteases” (Bio-Ker S.R.L., priority 2000, dated 2008).

The Km is the concentration of substrate that gives half-maximal velocity. By kcat is commonly meant the number of substrate molecules converted per active site and unit of time at saturation. By kcat/Km is commonly meant the turnover number divided by the Michaelis constant.

Residues, ends and D or L forms follow the SMILES beside them. *: point of attachment. pNA = O=[N+]([O-])c1ccc(N*)cc1; Cbz = O=C(OCc1ccccc1)*

On to `N=C(N)NCCC[C@H](NC(=O)[C@H](CCCCN)NC(=O)[C@H](Cc1ccc(O)cc1)NC(=O)OCc1ccccc1)C(=O)Nc1ccc([N+](=O)[O-])cc1` [Z-Y-K-R-pNA, Z-L-tyrosine-L-lysine-L-arginine-p-nitroanilide] (Cbz-Tyr-Lys-Arg-pNA), for which the Vmax in data set [1] is on record as 1029 (ΔA min^−1) × 10^3; in data set [2], 1720 (ΔA min^−1) × 10^3.

B1: Saccharomyces cerevisiae Kex2 protease, soluble secreted form ss-Kex2-C613 (parent Kex2 SEQ ID NO: 4) (Saccharomyces cerevisiae S288C) (protein)
chain: MKVRKYITLCFWWAFSTSALVSSQQIPLKDHTSRQYFAVESNETLSRLEEMHPNWKYEHDVRGLPNHYVFSKELLKLGKRSSLEELQGDNNDHILSVHDLFPRNDLFKRLPVPAPPMDSSLLPVKEAEDKLSINDPLFERQWHLVNPSFPGSDINVLDLWYNNITGAGVVAAIVDDGLDYENEDLKDNFCAEGSWDFNDNTNLPKPRLSDDYHGTRCAGEIAAKKGNNFCGVGVGYNAKISGIRILSGDITTEDEAASLIYGLDVNDIYSCSWGPADDGRHLQGPSDLVKKALVKGVTEGRDSKGAIYVFASGNGGTRGDNCNYDGYTNSIYSITIGAIDHKDLHPPYSEGCSAVMAVTYSSGSGEYIHSSDINGRCSNSHGGTSAAAPLAAGVYTLLLEANPNLTWRDVQYLSILSAVGLEKNADGDWRDSAMGKKYSHRYGFGKIDAHKLIEMSKTWENVNAQTWFYLPTLYVSQSTNSTEETLESVITISEKSLQDANFKRIEHVTVTVDIDTEIRGTTTVDLISPAGIISNLGVVRPRDVSSEGFKDWTFMSVAHWGENGVGDWKIKVKTTENGHRIDFHSWRLKLFGESIDSSKTETFVFGNDKEEVE
notes: pro-region cut at Lys108-Arg109; from yeast
Regarding B1, in data set [3], the Km is 56.8 µM.

B2: Kluyveromyces lactis Kex1 protease, soluble secreted variant ss-Kex1-C600 (truncated at amino acid 600; parent Kex1 SEQ ID NO: 3) (Kluyveromyces lactis NRRL … (protein)
chain: LPIGDSSMEQIQNARILFNISDPLFDQQWHLINPNYPGNDVNVTGLWKENITGYGVVAALVDDGLDYENEDLKDNFCVEGSWDFNDNNPLPKPRLKDDYHGTRCAGEIAAFRNDICGVGVAYNSKVSGIRILSGQITAEDEAASLIYGLDVNDIYSCSWGPSDDGKTMQAPDTLVKKAIIKGVTEGRDAKGALYVFASGNGGMFGDSCNFDGYTNSIFSITVGAIDWKGLHPPYSESCSAVMVVTYSSGSGNYIKTTDLDEKCSNTHGGTSAAAPLAAGIYTLVLEANPNLTWRDVQYLSILSSEEINPHDGKWQDTAMGKRYSHTYGFGKLDAYNIVHMAKSWINVNPQGWLYLPTIVEKQSISNSDEVIESTVSVSAEEFKQNNLKRLEHVTVTVDIDAPYRGHVLVDLISPDGVTSTLATARRLDKNRYGFQNWTFMSVAHWGSSGVGSWKLKVKSTHDNEIVTLKSWRLKMFGETIDAKKAKVISYGNDKEDAE
On to B2, for which, in data set [4], the Michaelis-Menten constant (Km) stood at 61.4 µM, the kcat was 3070 s⁻¹ and the kcat/Km was 5e+07 M⁻¹ s⁻¹.
